Test [1] concerns the target Rhinovirus C15 (RV-C15) virus particles (rhinovirus C15). The experiment in a line: ELISA.
Test [2] shares this target.
Test [3] has the same target. Description: ELISA; RV-C15 coated on the plate; native SP-A or recombinant SP-A variants at a single concentration of 10 µg/mL, with 5 mM CaCl2; A490 nm. (An ELISA detects its analyte on a solid surface through an enzyme-linked reagent.)

As for “Native surfactant protein A (SP-A) (from UniProt Q8IWL2 21-248; Q8IWL1 21-248) (complex)”, the A490nm at 10 µg/mL in test [1] is 2.01 A490nm. In turn, “Recombinant SP-A2 [A91, K223] (from UniProt Q8IWL1 21-248) (natural protein)” showed an RV-C15-GFP viral copy numbers in NECs at 48 h with rSP-A2 [A91, K223] at 400 µg/mL, percent of RV-C15-GFP infection control (% of RV-C15-GFP infection control) in test [2] of 40.2. For the same substance, the A490nm at 10 µg/mL in test [3] was determined as 1.19 A490nm.

“Recombinant SP-A2 [A91, Q223] (from UniProt Q8IWL1 21-248) (natural protein)” came in with an RV-C15-GFP viral copy numbers in NECs at 48 h with rSP-A2 [A91, Q223] at 400 µg/mL, percent of RV-C15-GFP infection control (% of RV-C15-GFP infection control) in test [2] of 54.8. Also, the A490nm at 10 µg/mL in test [3] is 0.19 A490nm.

With “Recombinant SP-A2 [P91, K223] (from UniProt Q8IWL1 21-248) (natural protein)”, the A490nm at 10 µg/mL in test [3] amounted to 1.67 A490nm.

In the case of “Recombinant SP-A2 [P91, Q223] (from UniProt Q8IWL1 21-248) (natural protein)”, the A490nm at 10 µg/mL in test [1] was 1.61 A490nm.

These data come from publication PMC11598966.
